Measured values reported in publication PMC9352680, “A comprehensive thermodynamic model for RNA binding by the Saccharomyces cerevisiae Pumilio protein PUF4”.

T1: PUF4 RNA-binding domain (Saccharomyces cerevisiae, UniProt P25339 537-888)
T1 sequence: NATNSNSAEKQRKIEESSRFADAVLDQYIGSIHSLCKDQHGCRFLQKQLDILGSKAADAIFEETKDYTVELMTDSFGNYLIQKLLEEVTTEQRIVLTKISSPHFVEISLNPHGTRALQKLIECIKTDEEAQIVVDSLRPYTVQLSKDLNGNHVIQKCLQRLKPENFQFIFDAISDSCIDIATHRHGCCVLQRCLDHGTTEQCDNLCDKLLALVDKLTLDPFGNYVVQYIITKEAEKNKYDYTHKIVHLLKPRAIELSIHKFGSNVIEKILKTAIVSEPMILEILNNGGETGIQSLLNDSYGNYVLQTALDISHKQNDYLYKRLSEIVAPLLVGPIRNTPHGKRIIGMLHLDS


target: T1, PUF4 RNA-binding domain; assay: Mg; RNA-MaP; 20 mM Na-HEPES pH 7.4, 30 mM KOAc, 0.75 mM MgCl2, 0.1% Tween-20, 5% glycerol, 0.1 mg/mL BSA, 2 mM DTT; 25 C; 0.0125-409.6 nM protein; conditions: tags: N-His6-TEV cleaved; C-SNAP kept, Cy3B-labelled; label: tethered on chip by stalled RNA polymerase

Binder	Kd [nM]
UCUCUUUGCAUUGUUAUCUCUU (ssRNA) [Ib_S1_P5E.1_K5.1_C5.1_H5.1_[T3C]_A5.1_[A7G]_F5.1_T5.1]	2260
UCUCUUUGUGCUAUUAUCUCUU (ssRNA) [Ib_S1_P5E.1_K5.1_C5.1_H5.1_[A4G]_A5.1_[T5C]_F5.1_T5.1]	28
UCUCUUUGCAUUUUUAUCUCUU (ssRNA) [Ib_S1_P5E.1_K5.1_C5.1_H5.1_[T3C]_A5.1_[A7T]_F5.1_T5.1]	1540
Id_ii_S4_P5E.2_K5.1_C5.2_[C-2T]_[T-1G]_H5.1_A5.1_F5.1_T5.2_[T11A]_[A12T] (ssRNA) RNA: UUUGACAACUGAUCGUUCUUUCUUGUGUAUUAUUAAUUUCUUUCUCGAUCAGUUGUCUUU	1.56
Id_ii_S4_P5E.2_K5.1_C5.2_[C-2T]_[T-1C]_H5.1_A5.1_F5.1_T5.2_[T11A]_[A12G] (ssRNA) RNA: UUUGACAACUGAUCGUUCUUUCUUCUGUAUUAUUAAGUUCUUUCUCGAUCAGUUGUCUUU	34.5
Id_ii_S4_P5E.2_K5.1_C5.2_[T-1G]_H5.1_A5.1_F5.1_T5.2_[T11G]_[A12C] (ssRNA) RNA: UUUGACAACUGAUCGUUCUUUCUCGUGUAUUAUUAGCUUCUUUCUCGAUCAGUUGUCUUU	1.94
Id_ii_S4_P5E.3_K5.2_C5.2_[C-2T]_[T-1G]_H5.2_A5.1_F5.1_T5.2_[T11A]_[A12C] (ssRNA) RNA: UUUGACAACUGAUCGUUCUUUCUUGUAUAUUAUUAACUUCUUUCUCGAUCAGUUGUCUUU	0.672
Id_ii_S4_P5E.2_K5.1_C5.2_[C-2T]_[T-1C]_H5.1_A5.1_F5.1_T5.2_[T11A]_[A12C] (ssRNA) RNA: UUUGACAACUGAUCGUUCUUUCUUCUGUAUUAUUAACUUCUUUCUCGAUCAGUUGUCUUU	2.92
Id_ii_S4_P5E.2_K5.1_C5.2_[T-1C]_H5.1_A5.1_F5.1_T5.2_[A12T] (ssRNA) RNA: UUUGACAACUGAUCGUUCUUUCUCCUGUAUUAUUAUUUUCUUUCUCGAUCAGUUGUCUUU	1.38
Id_ii_S4_P5E.2_K5.1_C5.2_[C-2T]_[T-1A]_H5.1_A5.1_F5.1_T5.2_[T11A] (ssRNA) RNA: UUUGACAACUGAUCGUUCUUUCUUAUGUAUUAUUAAAUUCUUUCUCGAUCAGUUGUCUUU	10.7
Id_ii_S4_P5E.3_K5.2_C5.2_[C-2G]_H5.2_A5.1_F5.1_T5.2_[A12T] (ssRNA) RNA: UUUGACAACUGAUCGUUCUUUCUGUUAUAUUAUUAUUUUCUUUCUCGAUCAGUUGUCUUU	28.2
Id_ii_S4_P5E.2_K5.1_C5.2_H5.1_A5.1_F5.1_T5.2_[A12C] (ssRNA) RNA: UUUGACAACUGAUCGUUCUUUCUCUUGUAUUAUUAUCUUCUUUCUCGAUCAGUUGUCUUU	1.53
Id_ii_S4_P5E.2_K5.1_C5.2_[C-2A]_[T-1C]_H5.1_A5.1_F5.1_T5.2_[A12C] (ssRNA) RNA: UUUGACAACUGAUCGUUCUUUCUACUGUAUUAUUAUCUUCUUUCUCGAUCAGUUGUCUUU	2.14
Id_ii_S4_P5E.3_K5.2_C5.2_[C-2T]_[T-1G]_H5.2_A5.1_F5.1_T5.2_[T11G]_[A12T] (ssRNA) RNA: UUUGACAACUGAUCGUUCUUUCUUGUAUAUUAUUAGUUUCUUUCUCGAUCAGUUGUCUUU	1
Id_ii_S4_P5E.3_K5.2_C5.2_[T-1A]_H5.2_A5.1_F5.1_T5.2_[T11C]_[A12C] (ssRNA) RNA: UUUGACAACUGAUCGUUCUUUCUCAUAUAUUAUUACCUUCUUUCUCGAUCAGUUGUCUUU	116
Id_ii_S4_P5E.2_K5.1_C5.2_[C-2T]_H5.1_A5.1_F5.1_T5.2_[T11A]_[A12T] (ssRNA) RNA: UUUGACAACUGAUCGUUCUUUCUUUUGUAUUAUUAAUUUCUUUCUCGAUCAGUUGUCUUU	2.21
Id_ii_S4_P5E.2_K5.1_C5.2_[T-1A]_H5.1_A5.1_F5.1_T5.2_[T11A] (ssRNA) RNA: UUUGACAACUGAUCGUUCUUUCUCAUGUAUUAUUAAAUUCUUUCUCGAUCAGUUGUCUUU	8.86
Id_ii_S4_P5E.2_K5.1_C5.2_H5.1_A5.1_F5.1_T5.2_[T11A]_[A12C] (ssRNA) RNA: UUUGACAACUGAUCGUUCUUUCUCUUGUAUUAUUAACUUCUUUCUCGAUCAGUUGUCUUU	3
Id_ii_S4_P5E.3_K5.2_C5.2_[C-2T]_H5.2_A5.1_F5.1_T5.2_[T11G]_[A12C] (ssRNA) RNA: UUUGACAACUGAUCGUUCUUUCUUUUAUAUUAUUAGCUUCUUUCUCGAUCAGUUGUCUUU	416
Id_ii_S4_P5E.2_K5.1_C5.2_[T-1A]_H5.1_A5.1_F5.1_T5.2_[T11A]_[A12T] (ssRNA) RNA: UUUGACAACUGAUCGUUCUUUCUCAUGUAUUAUUAAUUUCUUUCUCGAUCAGUUGUCUUU	3.49
Id_ii_S4_P5E.3_K5.2_C5.2_[C-2T]_H5.2_A5.1_F5.1_T5.2_[T11G]_[A12T] (ssRNA) RNA: UUUGACAACUGAUCGUUCUUUCUUUUAUAUUAUUAGUUUCUUUCUCGAUCAGUUGUCUUU	500
Id_ii_S4_P5E.3_K5.2_C5.2_[T-1G]_H5.2_A5.1_F5.1_T5.2_[A12T] (ssRNA) RNA: UUUGACAACUGAUCGUUCUUUCUCGUAUAUUAUUAUUUUCUUUCUCGAUCAGUUGUCUUU	15.6
Id_ii_S4_P5E.2_K5.1_C5.2_[T-1A]_H5.1_A5.1_F5.1_T5.2_[A12T] (ssRNA) RNA: UUUGACAACUGAUCGUUCUUUCUCAUGUAUUAUUAUUUUCUUUCUCGAUCAGUUGUCUUU	2.17
